Source: patent publication US20250276075A1, “METHODS OF TREATING AXL-EXPRESSING CANCERS WITH ANTI-AXL ANTIBODIES, ANTIBODY FRAGMENTS AND THEIR IMMUNOCONJUGATES” (BIOATLA, INC., priority 2020, published 2025)

Experiments:
[1] = BA3011 plasma exposure in monkey toxicology study; type: in vivo, cynomolgus monkey
Experimental: (§1) Based on the results at the 5 and 10 mg/kg/dose, the no-observed-adverse-effect-level (NOAEL) of BA3011 was considered to be 1 mg/kg/dose for both males and females. […] The highest non-severely toxic dose (HNSTD) was 5 mg/kg/dose, with C0 on Day 22 at 111 μg/mL and AUC0-inf at 2370 μg·h/mL.

[2] = BA3011 repeat dose intravenous toxicology study in monkey; type: in vivo, cynomolgus monkey
Experimental: The nonclinical intravenous (IV) toxicity of BA3011 was evaluated in the monkey in an initial dose-range finding study followed by a definitive Good Laboratory Practice repeat dose toxicology study. […] Many of the toxicities observed with BA3011 are similar to other ADCs conjugated to MMAE.
as §1

B1: Mecbotamab vedotin (conjugate, chains of the INN, looked up)
VH: EVQLVQSGAEVKKPGATVKISCKVSGYSFWGATMNWIRQPPGKGLEWIGLIKPSNGGTSYNQKFKGRVTISADKSISTAYLQWSSLKASDTAMYYCAHGHYESYEAMDYWGQGTLVTVSS
VL: DIQMTQSPSSLSASVGDRVTITCKASQDVVSAVAWYQQKPGQAPRLLIYWQDTRHTGVPSRFSGSGSGTEFTLTISSLQPDDFATYYCQEHFSPPLTFGQGTKVEIK
modifications: MC-vc-PAB-MMAE conjugate
area under the concentration versus time curve (AUC)0-inf ([1]; 1 mg/kg/dose, Day 22): 376 µg·h/mL | group mean maximum plasma exposure (C0) ([1]; 1 mg/kg/dose, Day 22): 20.0 µg/mL | AUC0-inf ([1]; 5 mg/kg/dose (HNSTD)): 2370 µg·h/mL | C0 ([1]; 5 mg/kg/dose (HNSTD), Day 22): 111 µg/mL | pathological changes in lymphoid organs ([2]; 10 mg/kg/dose in males and 5 mg/kg/dose in females): adverse pathological changes in lymphoid organs | mortality ([2]; 10 mg/kg/dose, Days 1 and 22, IV slow bolus): early deaths in females | hematological changes ([2]; 5 and 10 mg/kg/dose in both sexes): adverse hematological changes | changes in body weight, electrocardiogram (ECG), ophthalmology, or urinalysis ([2]; any of the dose levels tested): No test article-related changes | highest non-severely toxic dose (HNSTD) ([2]; cynomolgus monkey, in vivo): 5 mg/kg/dose
